The text below walks through data of article doi:10.1101/2025.09.10.675378 (bioRxiv, 2025).

This series concerns the molecule itself. Kind of series: native MS.

B1: hDVL3 PDZ-IDR2-DEP (aa 243-496) (domain or fragment)
chain: MSLNIITVTLNMEKYNFLGISIVGQSNERGDGGIYIGSIMKGGAVAADGRIEPGDMLLQVNEINFENMSNDDAVRVLREIVHKPGPITLTVAKCWDPSPRGCFTLPRSEPIRPIDPAAWVSHTAAMTGTFPAYGMSPSLSTITSTSSSITSSIPDTERLDDFHLSIHSDMAAIVKAMASPESGLEVRDRMWLKITIPNAFIGSDVVDWLYHNVEGFTDRREARKYASNLLKAGFIRHTVNKITFSEQCYYIFGD
Take B1: the binding result was “binds”.

B2: phosphorylated hDVL3 PDZ-IDR2-DEP (PDZ-pIDR2-DEP, aa 243-496) (domain or fragment)
chain: MSLNIITVTLNMEKYNFLGISIVGQSNERGDGGIYIGSIMKGGAVAADGRIEPGDMLLQVNEINFENMSNDDAVRVLREIVHKPGPITLTVAKCWDPSPRGCFTLPRSEPIRPIDPAAWVSHTAAMTGTFPAYGMSPSLSTITSTSSSITSSIPDTERLDDFHLSIHSDMAAIVKAMASPESGLEVRDRMWLKITIPNAFIGSDVVDWLYHNVEGFTDRREARKYASNLLKAGFIRHTVNKITFSEQCYYIFGD
modifications: 8-19 phosphates on S/T residues of IDR2 (native ESI-MS), added by CK1ε
For B2, the binding result is reported as “binds”.
